The results in this text go back to publication PMC3942467.

In the test the target is recombinant C-terminal fragment (residues 284-707) of nucleolin (nucleolin-C) (UniProt P19338). The test can be described thus: SPR; Biacore 3000; nucleolin-C amine-coupled on CM4 chip (~540 RU); FGF1 or FGF2 10-320 nM in PBS with 0.1 mg/ml BSA, 0.005% P20, pH 7.3, 25 C, 30 ul/min; no fit to 1:1 Langmuir, constants by Interaction Map (two parallel processes); apparent/approximate. On the technique in general: In SPR one partner is held on a chip, and binding of the other changes the refractive index at the surface.
Sequence of UniProt P19338 (P19338 284-707): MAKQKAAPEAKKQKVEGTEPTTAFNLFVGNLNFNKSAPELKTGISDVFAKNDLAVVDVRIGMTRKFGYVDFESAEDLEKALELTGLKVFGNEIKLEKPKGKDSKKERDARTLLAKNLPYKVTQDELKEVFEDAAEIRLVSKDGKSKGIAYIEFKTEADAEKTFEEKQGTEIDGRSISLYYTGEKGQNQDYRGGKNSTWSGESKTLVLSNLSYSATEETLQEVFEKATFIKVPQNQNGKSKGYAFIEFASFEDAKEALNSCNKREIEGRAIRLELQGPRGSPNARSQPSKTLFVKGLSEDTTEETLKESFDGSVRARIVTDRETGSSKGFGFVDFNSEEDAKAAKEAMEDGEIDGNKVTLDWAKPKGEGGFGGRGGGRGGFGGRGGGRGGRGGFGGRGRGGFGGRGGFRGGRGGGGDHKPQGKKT

“recombinant FGF1, truncated form (Ala-FGF1 21-154), wild type (ligand)”: the KD, stronger of two parallel binding processes (apparent) was found to be 40 nM; the KD, weaker of two parallel binding processes (approximate) was determined as 480 nM; the ka, stronger of two parallel binding processes was 18000 M⁻¹ s⁻¹; the ka, weaker of two parallel binding processes stood at 1.7e+06 M⁻¹ s⁻¹. Besides, the kd, stronger of two parallel binding processes stood at 0.0007 s⁻¹ and the kd, weaker of two parallel binding processes was 0.83 s⁻¹.
